The results in this text go back to patent publication US8822187B1, “Polypeptides, nucleic acid molecules, and methods for synthesis of triterpenes” (University of Kentucky Research Foundation, priority 2011, dated 2014).

Test [1] has as its target T1, Botryococcus braunii race B squalene synthase-like 1 (SSL-1), wild type, hexa-histidine tagged, SEQ ID NO: 2 (Botryococcus braunii, UniProt G0Y286).
T1 construct: FPP substrate with or without NADPH
T1 sequence (G0Y286 1-403): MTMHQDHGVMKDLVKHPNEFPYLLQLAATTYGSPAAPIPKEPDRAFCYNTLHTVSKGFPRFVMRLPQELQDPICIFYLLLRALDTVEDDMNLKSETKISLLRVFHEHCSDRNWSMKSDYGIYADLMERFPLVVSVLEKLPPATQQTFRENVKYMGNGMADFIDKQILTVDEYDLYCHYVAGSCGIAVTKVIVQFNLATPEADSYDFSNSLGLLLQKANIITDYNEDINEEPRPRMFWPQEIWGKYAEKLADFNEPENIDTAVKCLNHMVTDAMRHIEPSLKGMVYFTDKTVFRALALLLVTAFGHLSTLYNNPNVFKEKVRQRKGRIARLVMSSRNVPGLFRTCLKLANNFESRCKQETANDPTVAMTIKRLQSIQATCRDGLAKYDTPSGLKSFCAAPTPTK
Description: Michaelis-Menten enzyme kinetics of the SSL-1 reaction (radiolabeled FPP to PSPP). In kind it is biochemical. The method, then: FIG. 5 depicts Michaelis-Menten enzyme kinetics of the SSL-1 reaction. Enzyme assays (50 μl) were set up as described in the methods section with purified SSL-1 (0.2-1.0 μg), 0.1% triton X-100, ±2 mM NADPH, and the indicated concentration of ^3H-FPP. Assays were incubated for 15 min at 37° C. and stopped by addition of 50 μl 0.5 M EDTA. The reactions were then extracted 3× with 200 μl water saturated 1-butanol and pooled in a 4 ml glass screw cap vial. The butanol was evaporated with a stream of nitrogen gas and the white residue was resuspended in 2 ml of acid phosphatase solution (20% 1-propanol (v/v), 100 mM sodium acetate pH 4.7, 0.1% Triton X-100, 10 units sweet potato acid phosphatase) and incubated overnight (12-16 h) in a 28° C. shaker. […] The standards were visualized with iodine vapors and the zones corresponding to FOH (rf=0.65) and PSOH (rf=0.45) were scraped and analyzed by scintillation spectroscopy. […] The data was analyzed using the SigmaPlot Enzyme Kinetics 1.3 software. […]
Purification of the bacterial expressed enzymes was afforded by the amino-terminal hexa-histidine tag using His-Select Cobalt affinity gel (Sigma) columns according the manufacturer's recommendations. Recovery of proteins with the expected molecular sizes was determined by SDS-PAGE. […]

A short description of test [2]: Purified bacterial-expressed enzymes incubated with FPP, products by GC-MS or TLC/scintillation counting. In kind it is biochemical. The following applies: FPP as substrate, enzyme assayed alone. An excerpt: (§1) FIG. 6 depicts the functional characterization of the squalene synthase-like genes of Botryococcus braunii race B. The squalene synthase-like genes, SSL-1, SSL-2 and SSL-3, were expressed in yeast separately (SSL-1 (B), SSL-2(C) or SSL-3(D)) or in combinations (SSL-1+SSL-2(E), SSL-1+SSL-3(F)) and the hexane extractable metabolites profiled by GC-MS. The chemical profile of yeast not engineered with any gene constructs serves as the background control (A). […] Data (J) represents mean±S.E.M. obtained from three independent experiments (n=3). The chromatograms (A-I) are also annotated for the elution behavior of botryococcene (1), squalene (2), presqualene alcohol (3) and bisfarnesyl ether (4).
The recombinant vectors were transformed into E. coli strain BL21(DE3) according to the manufacturer's recommendations (Novagen). The selected lines were grown with kanamycin selection at 37° C. with vigorous shaking until the cultures reached an optical density of ˜0.8 (OD600 nm), then expression of the corresponding SSL gene induced by addition of 0.5 mM isopropylthio-β-D-galactoside (IPTG) and the cultures incubate for an additional 3 to 20 h with shaking at room temperature. One hundred ml of the culture was subject to centrifugation at 4,000 g for 10 min, the pelleted cells resuspended in 10 ml of lysis buffer containing 50 mM NaH2PO4, pH 7.8, 300 mM NaCl, 10 mM imidazole, 1 mM MgCl2, 1 mM PMSF, 1% glycerol (v/v), then sonicated 4× for 10 sec with a microprobe sonicator at 60% maximum power. The samples were cooled on ice for 2 min between sonication treatments. The sonicate was centrifuged at 16,000 g for 10 min at 4° C. and the supernatant used for purification of the hexa-histidine tagged enzymes.
Purification of the bacterial expressed enzymes was afforded by the amino-terminal hexa-histidine tag using His-Select Cobalt affinity gel (Sigma) columns according the manufacturer's recommendations. Recovery of proteins with the expected molecular sizes was determined by SDS-PAGE. The purified protein fractions were concentrated using Amicon Ultra (0.5 ml, 10K) centrifugation filter units and stored in 300 mM NaCl, 20 mM Tris-HCl pH 7.5, 5 mM dithiothreitol, 2 mM MgCL2, 50% glycerol (v/v) at −20° C. for 2-3 weeks without noticeable loss of activity.
Typical enzyme assays were initiated by mixing aliquots of purified enzyme with 50 mM Mops, pH 7.3, 20 mM MgCl2, 2.5 mM 2-mercaptoethanol, 10 μM [1-^3H]-FPP (˜2×10^5 dpm total), and 2 mM NADPH in total reaction volume of 50 μl. Reactions were incubated at 37° C. for 1 h and then extracted with 100 μl n-hexane or 100 ul MTBE. Forty μl of the n-hexane or MTBE extract was then spotted onto silica TLC plates with authentic standards of botryococcene and squalene and developed with n-hexane, or standards of bisfarnesyl ether and developed with n-hexane:MTBE, 25:1. The standards were visualized with iodine vapors and TLC zones corresponding to the standards were scrapped and analyzed by scintillation spectrometry. If Botryococcus lysate was added to enzyme assays, typically 5 μl of lysate (corresponding to 10 μg total protein) prepared from B. braunii cells according to Okada et al. (1) was added. […] Extracts were resuspended in 50 μl hexane and an aliquot analyzed by GC-MS with a Varian CP-3800 GC coupled to a Varian Saturn 2200 MS/MS (Varian Medical Systems) using a Supelco SLB-5 ms fused silica capillary column (30 m×0.25 mm×0.25 μM film thickness, Supelco). […]

In the next test the test system is TN7 yeast line. Description: Expression of SSL genes in TN7 yeast line, hexane extractable metabolites by GC-MS. It is filed as cell-based. The following applies: gene expressed separately in yeast.
Excerpt: as §1
FIG. 10 includes a comparison of botryococcene production in yeast engineered with different configurations of SSL-1 and SSL-3. Yeast line TN7 was engineered with the SSL-1 and SSL-3 genes on separate plasmids (squares), with gene fusions (SSL-1 fused to SSL-3 via a triplet repeat of GGSG (triangles), or vice versa (diamonds)), or with 63 or 71 amino acids of the carboxy terminus of the Botryococcus squalene synthase, sequences containing a membrane spanning domain, appended to the carboxy termini of the SSL-1 and SSL-3 enzymes, respectively (circles). The data represents mean±S.E.M.
The various recombinant yeast expression vectors were introduced into the TN7 yeast line via lithium acetate transformation, followed by selection for uracil and leucine auoxtrophic growth (Takahashi, et al. (2007)). […] Individual colonies of TN7 and the various TN7-transformants were subsequently grown in 25 ml of YPDE (nutrient rich) or Yeast Synthetic Drop-out medium (selection) for the indicated time at 25° C. before analyzing the cultures for production of novel triterpene components. In brief, 1 ml aliquots of the culture were combined with 1 ml of acetone, vigorously mixed, and incubated at room temperature for 10 min. One ml of hexane was added and mixed vigorously for 60 sec. […] The dried extract was resuspended in 50-500 μl of n-hexane and a 1 μl aliquot analyzed by GC-MS as described above. […]

Test [3] in a line: Secondary enzyme assays of SSL-3 or SSL-2 with PSPP versus FPP. It is filed as biochemical. The following applies: 2 mM NADPH, 1 μg enzyme, 37° C., 15 min. As for the experimental part: Two primary enzyme assays (500 μl) were set up with 20 μg of purified SSL-1 or Nicotiana benthamiana squalene synthase (TSS) plus 40 μM ^3H-FPP. The assays were incubated at 37° C. for 1 h, then extracted 3× with 500 μl water saturated 1-butanol, pooled, and evaporated under a stream of nitrogen gas. The white residue was resuspended in 50 μl of 25 mM NH4HCO3 in 70% ethanol (v/v). An aliquot of the resuspension was analyzed by the acid phosphatase assay (described in supplemental FIG. 4) and shown to consist of 45% and 40% PSPP for the SSL-1 and TSS primary incubations, respectively. […] It was calculated that 1 μl of each resuspension contained ˜150 pmoles of 3H-PSPP. […] For comparison, enzyme assays were also set up containing 3 μM ^3H-FPP, 2 mM NADPH and either 1 μg each of SSL-1 plus SSL-3, or SSL-1 plus SSL-2. Additional control assays contained 5 μM ^3H-FPP, 2 mM NADPH, and either 1 μg of SSL-3 or SSL-2. The reactions were incubated at 37° C. for 15 min, stopped by addition of 50 μl 0.5 M EDTA, and extracted with 100 μl n-hexane. Aliquots of the hexane extracts, along with standards of squalene and botryococcene, were separated by silica TLC using n-hexane as the developing solvent. Standards were visualized with iodine vapors and the corresponding zones were analyzed by scintillation spectroscopy. […]

On to `NC(=O)C1=CN([C@@H]2O[C@H](COP(=O)(O)OP(=O)(O)OC[C@H]3O[C@@H](n4cnc5c(N)ncnc54)[C@H](OP(=O)(O)O)[C@@H]3O)[C@@H](O)[C@H]2O)C=CC1` [NADPH], for which, in test [1] (NADPH addition, radiolabeled FPP substrate), the “stimulation of activity by NADPH addition” value was “no stimulation”. Further, the “effect of NADPH addition on enzyme activity (difference)” value in test [1] (±2 mM NADPH, 3H-FPP substrate, 15 min at 37° C.) is “less than 4%”.

B1: SSL-3: Botryococcus braunii race B squalene synthase-like 3 enzyme; converts PSPP to botryococcene (protein)
chain: MKLREVLQHPGEIIPLLQMMVMAYRRKRKPQDPNLAWCWETLIKVSRSYVLVIQQLPEVLQDPICVNYLVLRGLDTLQDDMAIPAEKRVPLLLDYYNHIGDITWKPPCGYGQYVELIEEYPRVTKEFLKLNKQDQQFITDMCMRLGAEMTVFLKRDVLTVPDLDLYAFTNNGPVAICLTKLWVDRKFADPKLLDREDLSGHMAMFLGKINVIRDIKEDVLEDPPRIWWPKEIWGKYLKDLRDIIKPEYQKEALACLNDILTDALRHIEPCLQYMEMVWDEGVFKFCAVPELMSLATISVCYNNPKVFTGVVKMRRGETAKLFLSVTNMPALYKSFSAIAEEMEAKCVREDPNFALTVKRLQDVQALCKAGLAKSNGKVSAKGA
For the molecule B1, the “squalene or botryococcene biosynthesis by purified enzyme in vitro” value in test [2] is given as “neither bacterial-expressed, purified enzymes exhibited any botryococcene biosynthesis”. In addition, the “products accumulating in yeast” value with TN7 yeast line is given as “did not cause the accumulation of any distinct products”. Further, in test [3], the “biosynthesis from PSPP versus FPP” value was “efficiently catalyze the biosynthesis of squalene and botryococcene, respectively, from PSPP but not FPP”.
